Measured values from patent publication US20240368239A1, “Novel bispecific protein and use thereof” (SL METAGEN, priority 2020, published 2024).
Entries after “also recorded” stand apart in the source; their conditions may differ. Read-outs that look alike come from different tables or passages of the source.

Key:
[1] = In vivo pharmacokinetics profile after subcutaneous administration (GLP-1-Fc ELISA and GLP-2-Fc ELISA); design: species or system male SD (Sprague Dawley) rats; details: GLP-1-Fc ELISA
Procedure: First, each protein was administered to 3 male SD (Sprague Dawley) rats per group at a dose of 1 mg/kg by subcutaneous (SC) route. Before injection and after 0.5, 1, 5, 10, 24, 48, 72, 120, and 168 hours after the injection, blood was collected and stored at room temperature for 30 minutes to aggregate. After centrifuging the aggregated blood at 3,000 rpm for 10 minutes, serum of each sample was collected and stored in a cryogenic freezer. Analyses were performed by an assay designed to specifically detect the GLP-1 site and Fc in the administered protein (GLP-1-Fc ELISA) and an assay designed to specifically detect the GLP-2 site and Fc in the administered protein (GLP-2-Fc ELISA). Specifically, a method of loading a biological sample on a plate coated with an antibody that binds to mouse-derived human immunoglobulin G4 (IgG4) to detect the target protein using a biotinylated anti-GLP-1 antibody (GLP-1-Fc ELISA), and a method of loading a biological sample on a plate coated with a monoclonal antibody that specifically reacts with GLP-2, to detect the target protein using a secondary antibody having HRP conjugated to mouse-derived human immunoglobulin G4 (IgG4) (GLP-2-Fc ELISA) were used. The obtained and prepared serum samples were loaded with appropriate dilutions to be analyzed at a position on a straight line of the standard curve.

[2] = system: B6 normal mice; experiment: Small intestine weight and body weight (GLP-1-Fc homodimer, GLP-2-Fc homodimer, MG12-1, MG12-4); type: in vivo; details: SC twice a week, 4 doses; homodimers 10 nmol/kg, MG12 20 nmol/kg
Text: In addition, the present inventors conducted the same experiment as above while only varying the administered substance, in order to confirm whether the bispecific fusion proteins (MG12-1 and MG12-4) designed in a form other than MG12-5 also increase the small intestine weight and energy absorption rate of experimental animals. Specifically, PBS, 10 nmol/kg GLP-1-Fc homodimer, 10 nmol/kg GLP-2-Fc homodimer, 20 nmol/kg MG12-1, and 20 nmol/kg MG12-4 were subcutaneously administered. The drug was administered twice a week for a total of 4 times for 2 weeks. After 4 doses, the body weight was measured before autopsy, and the small intestine was excised after the autopsy and weighed. After the autopsy, the entire gastrointestinal tract of the mouse was separated, the mesentery and the pancreas were excised, and the area where the ileum and the cecum meet was cut to separate the small intestine and the large intestine. The separated small intestine was perfused and washed with 10% neutral formalin to remove the contents, and was weighed after removing the neutral formalin with an absorbent towel.

[3] = system: B6 normal mice; experiment: Fluorescence spectrometry tissue distribution of Cy5.5-labelled substances; type: in vivo
Procedure: Next, the present inventors performed an experiment in B6 normal mice in order to observe the distribution in each tissue and organ according to the administration of a bispecific fusion protein according to an embodiment of the present invention. Cy5.5 was used as a fluorophore for tracking the distribution after administration of each substance. Buffer exchange was performed for each substance to be administered, MG12-1, MG12-4, and GLP-1Fc homodimer with boric acid buffer (pH 8.5), and with reference to the protocol of the Cy5.5 labeling kit (GE, #PA15605) were allowed to react with an appropriate amount of Cy5.5 overnight under refrigeration conditions. Unreacted Cy5.5 in the reaction-completed substance was removed through the PBS substitution process, and whether Cy5.5 was reacted well was confirmed through the final SDS-PAGE. Each administered substance was diluted with 10% DMSO/PBS to have the same fluorescence intensity using an ELISA plate reader capable of measuring fluorescence intensity before being administered.

[4] = system: Balb/c-nude mice; experiment: PET-MRI tissue distribution of Zr89-labelled proteins; type: in vivo; details: Zr89 label, SC
Text: Next, the present inventors performed an experiment in Balb/c-nude mice in order to observe the distribution in each tissue organ following the administration of a substance. Zr^89 was used as a radiotracer for tracking the distribution after administration of each substance. Each substance to be administered was labeled with Zr^89 as a reaction condition and a chelator selected through a preliminary test. The labeled Zr^89-protein was purified using a PD-10 column, and Zr^89 labeling efficiency and purity were confirmed using Radio TLC and SEC-HPLC. The labeling efficiency of the Zr^89-protein of 90% or more and the purity of 80% or more were determined to be appropriate, and the labeled protein was administered subcutaneously at 0.2 mCi/0.2 cc. Each administration substance was administered to three animals and static images for 20 minutes were obtained using PET-MRI at 1 hour, 6 hours, 24 hours, 48 hours, and 168 hours after injection. Through image analysis, the distribution of drugs as a function of time in the liver, small intestine, and large intestine was expressed as SUV (Standardized Uptake Value) and comparatively analyzed.

[5] = system: B6 normal mice; experiment: MG12 vs. GLP-1 and GLP-2 combo: body weight and small intestine changes; type: in vivo; details: 12 days SC, normalized to cumulative feed intake
Procedure: In particular, in order to observe changes in body weight and the small intestine following the substance administration, an experiment was conducted in B6 normal mice. […] After starting drug administration twice a week during the test period, feed intake was measured and expressed as cumulative feed intake, and pre-autopsy body weight was measured to calculate the body weight vs. feed intake. After the autopsy, the weight of the small intestine, and mucosal depth and villus height of the duodenum and the jejunum were measured. More specifically, after the autopsy, the entire gastrointestinal tract of the mouse was separated, the mesentery and the pancreas were excised, and the area where the ileum and the cecum meet was cut to separate the small intestine and the large intestine.

[6] = target: T1, GLP-2 receptor (Homo sapiens, UniProt O95838); experiment: GLP-2 in vitro activity, cAMP/CNG channel membrane potential fluorescence assay (Human GLP2R ACTOne cell line)
T1 sequence (O95838 1-553): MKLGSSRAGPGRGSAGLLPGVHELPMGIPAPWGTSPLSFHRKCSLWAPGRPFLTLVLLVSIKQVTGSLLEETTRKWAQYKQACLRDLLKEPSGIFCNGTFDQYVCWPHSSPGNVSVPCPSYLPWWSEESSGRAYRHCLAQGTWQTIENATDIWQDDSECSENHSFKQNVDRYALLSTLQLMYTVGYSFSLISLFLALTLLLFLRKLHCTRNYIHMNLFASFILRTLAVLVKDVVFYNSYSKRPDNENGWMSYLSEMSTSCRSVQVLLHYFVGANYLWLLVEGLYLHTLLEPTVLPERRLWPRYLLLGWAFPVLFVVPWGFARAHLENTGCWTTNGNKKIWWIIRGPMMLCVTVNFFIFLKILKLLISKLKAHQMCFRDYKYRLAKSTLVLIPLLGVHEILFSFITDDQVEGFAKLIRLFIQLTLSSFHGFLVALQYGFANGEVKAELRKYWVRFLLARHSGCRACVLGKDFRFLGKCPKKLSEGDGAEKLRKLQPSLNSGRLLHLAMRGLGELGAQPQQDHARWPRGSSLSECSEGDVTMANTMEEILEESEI
Procedure: Specifically, in order to evaluate the degree of CAMP induction by the GLP-2 specific reaction, a transformed cell line (Human GLP2R ACTOne™), having GLP-2 receptor expressed in a cell line expressing CNG channels that open in a CAMP-specific manner, was procured. […] The washed cells were diluted with a cell culture medium (DMEM/high glucose medium, supplemented with 10% FBS, 5% G418, 0.01% puromycin) and seeded at 3˜5×10^4 cells/100 μL/well, and were incubated in an incubator for about 20 hours at 37° C., 5% CO2. After removing the plate from the CO2 incubator, the cells were observed under a microscope, and when the cell confluence reached 80% or more, 1× dye-loaded solution (Elite™ fluorescent membrane potential dye kit, eEnzyme) was added at 100 μL/well. While blocking the light at room temperature, the reaction was carried out for 2 to 2.5 hours, and before adding the test solutions, the fluorescence baseline (F0) was measured using ELISA. Thereafter, the test solutions of various concentrations to be evaluated were treated at 50 μL/well, reacted for 0.5 hours, and then were measured for fluorescence value (Ft) using ELISA. The reactivity of each test solution was evaluated using the Ft/F0 ratio.

[7] = 24 hours after administration, Cy5.5 label

Molecule | terminal half-life, rank among MG12-1, 3, 4 and 5 [1] | small intestine weight [2] | weight change before autopsy (body weight) [2] | Average fluorescence intensity, Brain [3, 7] | Average fluorescence intensity, Large intestine [3, 7] | Average fluorescence intensity, Small intestine [3, 7] | distribution in the small intestine and the large intestine ([3]; compared to GLP-1-Fc homodimer) | distribution to the liver (SUV) [4] | distribution to the small intestine and large intestine (SUV) [4] | body weight increase vs. feed intake [5] | GLP-2 activity lower than that of other variants [6] | SUV (Standardized Uptake Value) in liver, small intestine and large intestine ([4]; 1-168 hours) | EC50 ([6]; Table 3, GLP-2 activity) [nM] | relative activity (%), GLP-2 activity ([6]; compared to GLP-2-Fc homodimer) [%] | EC50 ([6]; read-out: EC50, GLP-2 activity, Table 4 experiment) [nM]
MG12-4: Knob/hole Fc heterodimer: GLP-1/Exendin 4 hybrid (SEQ 5), glycan linker, first fusion protein SEQ 27; GLP-2 (SEQ 17), second fusion protein SEQ 34 (protein) chain 1: HGEGTFTSDVSSYLEGQAAKEFIAWLVKGGPSSGAPPPSGGGGGSGGGGSGGGGSAKNTTAPATTRNTTRGGEEKKKEKEKEEQEERTHTCPPCPSHTQPLGVFLFPPKPKDQLMISRTPEVTCVVVDVSQEDPEVQFNWYVDGVEVHNAKTKPREEQFNSTYRVVSVLTVLHQDWLNGKEYKCKVSNKGLPSSIEKTISKAKGQPREPQVYTLPPCQEEMTKNQVSLWCLVKGFYPSDIAVEWESNGQPENNYKTTPPVLDSDGSFFLYSRLTVDKSRWQEGNVFSCSVLHEALHNHYTQKSLSLSLGK chain 2: HGDGSFSDEMNTILDNLAARDFINWLIQTKITDGGGGSGGGGSGGGGSEKEKEEQEERTHTCPPCPSHTQPLGVFLFPPKPKDQLMISRTPEVTCVVVDVSQEDPEVQFNWYVDGVEVHNAKTKPREEQFNSTYRVVSVLTVLHQDWLNGKEYKCKVSNKGLPSSIEKTISKAKGQPREPQVCTLPPSQEEMTKNQVSLSCAVKGFYPSDIAVEWESNGQPENNYKTTPPVLDSDGSFFLVSRLTVDKSRWQEGNVFSCSVLHEALHNHYTQKSLSLSLGK | shortest half-life | greater increase in small intestine weight than the GLP-2-Fc homodimer administered group; also recorded: superior effect of increasing small intestine weight | numerical increase in body weight | 297 | 2343 | 4302 | larger | reduced or showed no difference compared to Fc | significantly high compared to that of GLP-1-Fc homodimer and GLP-2-Fc homodimer | statistically significant body weight increase compared to the co-administered group | – | – | – | – | –
MG12-2: Knob/hole Fc heterodimer: GLP-2 (SEQ 17), glycan linker, second fusion protein SEQ 33; GLP-1 (SEQ 1), first fusion protein SEQ 25 (protein) chain 1: HGDGSFSDEMNTILDNLAARDFINWLIQTKITDGGGGSGGGGSGGGGSAKNTTAPATTRNTTRGGEEKKKEKEKEEQEERTHTCPPCPSHTQPLGVFLFPPKPKDTLMISRTPEVTCVVVDVSQEDPEVQFNWYVDGVEVHNAKTKPREEQFNSTYRVVSVLTVLHQDWLNGKEYKCKVSNKGLPSSIEKTISKAKGQPREPQVYTLPPCQEEMTKNQVSLWCLVKGFYPSDIAVEWESNGQPENNYKTTPPVLDSDGSFFLYSRLTVDKSRWQEGNVFSCSVMHEALHNHYTQKSLSLSLGK chain 2: HGEGTFTSDVSSYLEGQAAKEFIAWLVKGRGGGGGSGGGGSGGGGSEKEKEEQEERTHTCPPCPSHTQPLGVFLFPPKPKDTLMISRTPEVTCVVVDVSQEDPEVQFNWYVDGVEVHNAKTKPREEQFNSTYRVVSVLTVLHQDWLNGKEYKCKVSNKGLPSSIEKTISKAKGQPREPQVCTLPPSQEEMTKNQVSLSCAVKGFYPSDIAVEWESNGQPENNYKTTPPVLDSDGSFFLVSRLTVDKSRWQEGNVFSCSVMHEALHNHYTQKSLSLSLGK | – | – | – | – | – | – | – | – | – | – | 4-5 times | – | – | – | –
GLP-2-Fc homodimer: GLP-2 homodimer fused with Fc not containing the Knobs-into-Holes (KiH) structure (protein, first fusion protein of bispecific fusion protein containing GLP-1 analogue, GLP-2 homodimer fused with Fc not containing the Knobs-into-Holes (KiH) structure) HGEGTFTSDVSSYLEGQAAKEFIAWLVKGRGGGGGSGGGGSGGGGSEKEKEEQEERTHTCPPCPSHTQPLGVFLFPPKPKDTLMISRTPEVTCVVVDVSQEDPEVQFNWYVDGVEVHNAKTKPREEQFNSTYRVVSVLTVLHQDWLNGKEYKCKVSNKGLPSSIEKTISKAKGQPREPQVCTLPPSQEEMTKNQVSLSCAVKGFYPSDIAVEWESNGQPENNYKTTPPVLDSDGSFFLVSRLTVDKSRWQEGNVFSCSVMHEALHNHYTQKSLSLSLGK | – | statistically significant increase | no change | – | – | – | – | – | – | – | – | SUV values were increased compared to Fc in all of the three organs | 0.44 | 100 | 7.7
